Experimental data taken from patent CN117567617A.

Biological target: 人CLDN18.2 (human claudin18.2) (human) (UniProt P56856)
Test: cell-based or functional assay

- CDC活性 EC50 (Presto Blue, complement): 10.9 µg/mL
B1: 全人源抗CLDN18.2抗体2A2 (CLDN-BC-2A2-hH1) (antibody, V domains shown)
VH: QVQLQQWGPGLVKPSQTLSLTCTVSGGSISSVGYYWSWIRQHPGQGLEWVGYIYYSGGTYYNPSLKSRVTISLDTSKNQFSLKLTSVTAADTAVYYCASYGSVSPYYYYYGMDVWGQGTTVTVSS
VL: DIVMTQSPSSVSASVGDRVTITCRASQGISSWLAWYQQKPGKAPNLLISAASSLQSGVPSRFSGNGSGTDFTLTISSLQPEDFASYYCQQANSFPITFGQGTRLEIK
